Biological target: T1, Gal-α-(1→3)-Gal target of the SPR experiment (ligand on the chip not stated)
T1 construct: also called target glycan
Assay: SPR (BIAcore), Kd from kon and koff; ligand on the chip not stated
Description: Dissociation constants (Kd) for the scFvs were calculated from the measured association (kon) and dissociation (koff) rate constants by using surface plasmon resonance (SPR) BIAcore instrumentation and software (GE).

Binder | Kd [nM]
scFv-G12 (scFv, Chicken scFv (VL-linker-VH), expressed soluble in E. coli; It recognises the Gal-α-(1→3)-Gal glycan) scFv: QAALTQPSSVSANPGETVKITCSGGSYHYGWYQQKSPGSAPVTVIYSNNQRPSGIPSRFSGSTSDSTGTLTITGVQADDEAVYFCGSYDSSNTYAGIFGAGTTLTVLGQSSRSSSGGGSSGGGGSAVTLDESGGGFQTPGGALSLVCKASGFTFSSYSMQWVRQAPGKGLEFVAGIGNSDRYTYFGPAVKGRATISRDNGQSTLRLQLNNLRAEDTATYFCARSGDSGNGCTHPWCSADNINAWGHGTEVIVSSTSGQAGQ | 18
scFv-A4 (scFv, Chicken scFv (VL-linker-VH) from a pComb3 phage library, expressed soluble in E. coli; It recognises the Gal-α-(1→3)-Gal glycan, not a protein surface) scFv: QAALTQPSSVSTNPGGTVKITCSGGNGNYGWYQQKSPGSAPVTVIYSNNKRPSDIPSRFSGSKSGSTATLTITGVQVDDEAVYFCGAYDNTYVGVFGAGTTLTVLGQSSRSSSGGGSSGGGGSAVTLDESGGGLQTPGGGLSLVCKASGFTFSSYSMQWVRQTPGKGLEFVAGIGYSDSYTYFGPAVKGRATISRDNGQNTVRLQLNNLRAEDTATYYCARSADTIYGCTHPWCSADNIDAWGHGTEVIVSSTSGQAGQ | 57.3
scFv-A11 (scFv, Chicken scFv (VL-linker-VH), expressed soluble in E. coli; It recognises the Gal-α-(1→3)-Gal glycan) scFv: QAALTQPSSVSANPGETVKITCSGGGSYGGSYYYGWYQQKSPGSAPVTVIYSNDNRPSDIPSRFSGSTSGSTSTLTITGVQVDDEAVYYCGTYDSSYVGIFGAGTALTVLGQSSRSSGGGSSGGGGSAVTLDESGGGLQTPGGGLSLVCKASGFTFSSYSMQWVRQTPGKGLEFVAGIGYSDSYTYFGPAVKGRATISRDNGQNTVRLQLNNLRAEDTATYYCARSADTIYGCTHPWCSADNIDAWGHGTEVIVSSTSGQAGQ | 8.04

Reference: US20160003839A1 (NATIONAL UNIVERSITY OF IRELAND GALWAY, published 2016)
